According to patent US20140056903A1 (Regeneron, published 2014):

T1: monkey GFRα3 expressed with a C-terminal myc-myc-hexahistidine tag (monkey (Mf), UniProt O60609 32-374 (human entry), limits assumed)
T1 construct: also called MfGFRα3-mmh; MfGFRα3-mmH
T1 chain: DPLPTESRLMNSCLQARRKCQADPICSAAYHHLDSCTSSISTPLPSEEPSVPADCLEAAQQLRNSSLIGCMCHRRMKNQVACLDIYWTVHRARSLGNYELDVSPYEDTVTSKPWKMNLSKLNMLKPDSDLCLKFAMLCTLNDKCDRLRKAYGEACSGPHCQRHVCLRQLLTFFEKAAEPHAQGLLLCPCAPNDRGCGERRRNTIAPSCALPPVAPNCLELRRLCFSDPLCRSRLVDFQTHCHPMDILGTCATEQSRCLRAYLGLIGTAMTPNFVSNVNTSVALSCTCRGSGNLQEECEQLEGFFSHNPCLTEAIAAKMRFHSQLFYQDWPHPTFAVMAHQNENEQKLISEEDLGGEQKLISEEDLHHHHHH

T2: human GFRα3 expressed with a C-terminal mFc tag (human)
T2 construct: also called hGFRα3-mFc
T2 chain: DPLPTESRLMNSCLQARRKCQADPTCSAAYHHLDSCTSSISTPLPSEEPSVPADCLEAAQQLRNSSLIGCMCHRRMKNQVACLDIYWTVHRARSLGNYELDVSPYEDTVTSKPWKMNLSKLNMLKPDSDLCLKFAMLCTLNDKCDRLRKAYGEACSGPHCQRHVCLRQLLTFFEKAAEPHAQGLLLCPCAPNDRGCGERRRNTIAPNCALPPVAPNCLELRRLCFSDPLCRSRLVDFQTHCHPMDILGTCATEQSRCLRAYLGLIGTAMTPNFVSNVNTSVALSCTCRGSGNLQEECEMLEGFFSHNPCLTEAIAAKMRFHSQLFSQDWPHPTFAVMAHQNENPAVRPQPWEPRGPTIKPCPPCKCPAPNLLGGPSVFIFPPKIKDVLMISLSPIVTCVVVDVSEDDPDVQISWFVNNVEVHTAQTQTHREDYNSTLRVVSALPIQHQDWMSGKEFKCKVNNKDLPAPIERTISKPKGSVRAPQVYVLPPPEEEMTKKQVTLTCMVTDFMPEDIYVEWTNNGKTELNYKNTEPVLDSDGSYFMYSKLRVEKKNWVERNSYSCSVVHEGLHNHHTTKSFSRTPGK

B1: H4H2350P (antibody, human IgG4, V domains shown)
VH: QVQLQESGPGLVKPSETLSLTCTVSGGSISTYYWSWFRQPPGKGLEWIGYIYYSGSTNHNPSLKSRVTISVDTSKNQFSLKLRSVTAADTAVYYCARVGPVGWGSWGNFDYWGQGTLVTVSS
VL: DIQLTQSPSFLSASVGDRVTITCWASQGISSYLAWSQQKPGKAPKLLIYAASTLQSGVPSRFSGSGSGTEFTLTISSLQPEDFATYYCQQLNSYPWTFGQGTKVEIK
notes: human IgG4 Fc (H4H)
B2: H4H2352S (antibody, human IgG4, V domains shown)
VH: EVQLVQSGAEVKKPGASVKVSCKASGYTFTNYGITWVRQAPGQGLEWMGWISAYNGNTGYAQKFQGRVTMTTDTSTSTAYMELRSLRSDDTAVYYCAREDYDFWRAFDIWGQGTMVTVSS
VL: EIVLTQSPGTLSLSPGERATLSCRASQSVSSTYLAWLQQKPGQAPRLLIYGASSRATGIPDRFSGSGSGTDFTLTINRLEPEDFAVYYCQQYAYSPYTFGQGTKLEIK
notes: human IgG4 Fc (H4H); also called H4H2352S-1
B3: H4H2292S (antibody, human IgG4, V domains shown)
VH: EVQLVESGGGVVQPGRSLRLSCAASGFTFSSYGMHWVRQAPGKGLEWVSFIWYDGSNKYYADSVKGRFTISRDNSKNTLYLQMNSLTAEDTAVYYCARRGILTGTTAFDIWGQGTMVTVSS
VL: DIQMTQSPSSLSASVGDRVTITCRASQSISSYLNWYQQKPGKAPKLLIYAASSLQSGVPSRFSGSGSGTDFTLTIRSLIPEDFATYYCQQTYNTPFTFGPGTKVEIK
notes: human IgG4 Fc (H4H)

Target: T3, human GFRα3 expressed with a C-terminal myc-myc-hexahistidine tag (human, UniProt O60609 32-374, biotinylated (sites not given) in ELISA format 2 and in the Octet cross-competition; not in SPR)
T3 construct: also called hGFRα3-mmh; hGFRα3-mmH
Assay: Octet cross-competition; biotin-hGFRα3-mmH pre-saturated with first antibody H4H2294S
Method: (§1) A cross-competition assay was conducted to assess the ability of select antibodies to compete with one another for binding to human GFRα3 using an Octet RED384 biosensor (Fortebio Inc.). The entire experiment was performed at 25° C. with the flow rate of 1000 rpm in Octet HBST buffer (0.01 M HEPES pH7.4, 0.15M NaCl, 3 mM EDTA, 0.05% v/v Surfactant P20, 0.1 mg/mL BSA). To assess whether 2 antibodies were able to compete with one another for binding to their respective epitopes on biotinylated recombinant human GFRα3 expressed with a C-terminal myc-myc-hexahistidine tag (biotin-hGFRα3-mmH; SEQ ID:370), around ˜1.2 nm of biotin-hGFRα3-mmH was first captured onto streptavidin-coated Octet sensor tips (Fortebio Inc, #18-5019) by submerging the tips for 1 minute into a 10 μg/mL solution of biotin-hGFRα3-mmH. The antigen coated sensor tips were then placed into wells containing 25 μg/mL solution of a first anti-GFRα3 monoclonal antibody for 4 minutes to saturate the biotin-hGFRα3-mmH surface. The sensor tips were then subsequently dipped into wells containing 25 μ/mL solution of a second anti-GFRα3 monoclonal antibody. The sensor tips were washed in Octet HBST buffer in between every step of the experiment. The real-time binding response was monitored during the course of the experiment and the binding response at the end of every step was recorded as shown in FIG. 9. The response of mAb-2 binding to biotin-hGFRα3-mmH pre-complexed with the first antibody was compared and competitive/non-competitive behavior of different anti-GFRα3 monoclonal antibodies was determined.

T3 sequence (O60609 other isoform, or with tags, fused parts or gaps limits assumed): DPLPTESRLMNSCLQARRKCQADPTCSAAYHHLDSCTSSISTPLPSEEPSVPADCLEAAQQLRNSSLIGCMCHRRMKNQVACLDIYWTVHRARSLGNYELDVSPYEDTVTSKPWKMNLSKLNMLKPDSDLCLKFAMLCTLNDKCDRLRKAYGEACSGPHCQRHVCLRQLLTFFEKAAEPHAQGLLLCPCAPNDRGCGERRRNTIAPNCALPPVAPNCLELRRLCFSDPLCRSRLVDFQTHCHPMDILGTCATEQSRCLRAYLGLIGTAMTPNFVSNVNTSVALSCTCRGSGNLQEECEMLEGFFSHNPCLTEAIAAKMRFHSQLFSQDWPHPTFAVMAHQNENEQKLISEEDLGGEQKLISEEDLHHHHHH

binding response of second antibody (nm) | Binder
1.42 | B1
1.99 | B2
1.92 | B3

Target: T1, monkey GFRα3 expressed with a …
Assay: SPR, Ab captured, 37C
In short: (§2)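 Anti-GFRα3 antibodies were captured on anti-mouse or anti-human IgG surfaces on a CM5 chip in HBS-EP or PBS with 0.05% P20. Myc-myc-His-tagged antigens were injected at 200 to 7.4 nM, hFc-tagged at 100 to 3.7 nM (3-fold dilutions). Rates were fitted to a 1:1 model; KD = kd/kₐ.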

Kd [nM] | koff [s⁻¹] | kon [M⁻¹ s⁻¹] | t1/2 [h] | Binder
12 | 0.000896 | 74800 | 0.217 | B1
0.117 | 6.53e-05 | 557000 | 2.95 | B2
2.18 | 0.000195 | 89500 | 0.983 | B3

Target: T2, human GFRα3 expressed with a C-terminal …
Assay: SPR, Ab captured, 37C
In short: as §2

Kd [nM] | koff [s⁻¹] | kon [M⁻¹ s⁻¹] | t1/2 [h] | Binder
0.0492 | 0.000126 | 2.56e+06 | 1.53 | B1
0.0132 | 3e-05 | 2.28e+06 | 6.42 | B2
0.0432 | 2.57e-05 | 596000 | 7.48 | B3

Target: T3, human GFRα3 expressed with a C-terminal …
Assay: Octet cross-competition; biotin-hGFRα3-mmH pre-saturated with first antibody H4H2295S
Method: as §1

binding response of second antibody (nm) | Binder
1.35 | B1
1.85 | B2
1.8 | B3

Target: T3, human GFRα3 expressed with a C-terminal …
Assay: Octet RED384; 25 µg/mL first antibody on streptavidin-captured biotin-hGFRα3-mmH
Method: as §1

Amount of Antibody 1 bound (nm) | Binder
3.31 | B1
2.74 | B2
2.82 | B3
